Laboratory results published in publication PMC10343166, “Structure of puromycin-sensitive aminopeptidase and polyglutamine binding” (PLOS ONE, 2023).

Assays:
[1] = biological target: T1, Puromycin-sensitive aminopeptidase, wild type, with C-terminal polyhistidine sequence (kinetic studies) (human, UniProt P55786 1-919); assay: competitive inhibition of enzyme activity (Dixon plots); apparent Ki from inhibition of Ala-4MβNA cleavage at increasing peptide concentrations; 20 mM HEPES pH 7.0, 2 mM BME, 37°C; 20 μM (PSA^wt) or 100 μM (PSA^F433A) Ala-4MβNA; triplicate; details: both partners purified
T1 construct: Human puromycin-sensitive aminopeptidase (PSA, NPEPPS), UniProt P55786; also called PSA^wt; wild type PSA
T1 sequence (P55786 whole entry): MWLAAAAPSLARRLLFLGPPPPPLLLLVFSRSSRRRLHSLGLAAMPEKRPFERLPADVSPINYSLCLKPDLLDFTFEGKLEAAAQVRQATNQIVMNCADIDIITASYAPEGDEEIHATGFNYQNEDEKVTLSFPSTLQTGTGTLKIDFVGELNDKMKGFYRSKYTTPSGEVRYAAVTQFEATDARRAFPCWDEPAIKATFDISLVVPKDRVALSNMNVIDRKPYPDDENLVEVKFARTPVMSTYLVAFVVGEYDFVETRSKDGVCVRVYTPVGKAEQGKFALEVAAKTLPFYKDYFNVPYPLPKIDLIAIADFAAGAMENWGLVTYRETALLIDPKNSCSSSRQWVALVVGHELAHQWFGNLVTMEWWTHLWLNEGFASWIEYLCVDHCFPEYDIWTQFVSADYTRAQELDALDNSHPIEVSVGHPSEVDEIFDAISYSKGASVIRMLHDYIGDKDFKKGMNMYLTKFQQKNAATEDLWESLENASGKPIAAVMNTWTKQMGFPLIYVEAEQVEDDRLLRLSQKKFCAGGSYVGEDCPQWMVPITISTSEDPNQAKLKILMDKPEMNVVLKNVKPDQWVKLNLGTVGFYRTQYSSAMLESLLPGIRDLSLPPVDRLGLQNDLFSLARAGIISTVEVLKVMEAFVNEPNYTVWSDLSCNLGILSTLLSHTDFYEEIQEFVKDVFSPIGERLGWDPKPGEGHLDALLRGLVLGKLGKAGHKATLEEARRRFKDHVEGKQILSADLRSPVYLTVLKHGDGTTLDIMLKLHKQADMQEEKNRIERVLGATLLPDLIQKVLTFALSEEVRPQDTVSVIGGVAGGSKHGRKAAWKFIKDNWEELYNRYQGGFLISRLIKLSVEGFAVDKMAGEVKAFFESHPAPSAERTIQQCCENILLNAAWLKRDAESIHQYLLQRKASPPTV

[2] = biological target: T2, Puromycin-sensitive aminopeptidase F433A mutant, with C-terminal polyhistidine sequence (human, UniProt P55786 1-919, F433A); assay: as above; details: both partners purified
T2 construct: Human puromycin-sensitive aminopeptidase (PSA, NPEPPS), UniProt P55786, with F433A; also called PSA^F433A
T2 sequence (P55786 whole entry F433A): as the sequence (P55786 whole entry) above, with F433A counted along it

Ki [1]: 1.3 µM
Ki [2]: 4.9 µM
B1: Polyglutamine peptide Lys2Gln15Lys2 (peptide)
peptide: KKQQQQQQQQQQQQQQQKK
notes: Printed as Lys2Gln15Lys2 (19-mer); In PDB 8SW1 only 6 residues are modelled, deposited as polyalanine; also called PQ; PQ peptide; source: synthetic peptide, bought: Peptidogenic Research and Co; purified (TFA/hexafluoro-2-propanol, centrifugation)
